The values below are quoted from earlier work in article PMC5912896.

The target in the series is Akt PH domain (Homo sapiens) (UniProt P31749).
UniProt P31749, sequence (P31749 2-111): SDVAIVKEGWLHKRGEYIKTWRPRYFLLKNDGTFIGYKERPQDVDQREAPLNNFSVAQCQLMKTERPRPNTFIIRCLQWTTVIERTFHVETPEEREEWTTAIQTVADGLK

Usually Kd stands for a measure of binding affinity in units of concentration. Take Akt-in peptide (TCL1 A strand): the dissociation constant (Kd) is 18 µM.
